The DeepSol protein solubility set

Experiment: soluble on expression in E. coli; label from the status in PepcDB or PDB records

Row | Sequence | soluble on expression in E. coli
1 | PPKWKVKKQKLAEKAAREAELTAKKAQARQALSIYLNLPTLDEAVNTLKPWWPGLFDGDTPRLLACGIRDVLLEDVAQRNIPLSHKKLRRAMKAITRSESYLCAMKAGACRYDTEGYVTEHISQEEEVYAAERLDKIRRQNRIKAELQAVLD | soluble
2 | MAHHHHHHMTSVLAVVNARRVWRGASVLQPAVSSSYPPEVDALLVEGGRISFIGSTAEVQQRYGALVAAQPVDAAAAAPQPVEGGRPRTVSHRVIDCEHRHAVYPGFIDSHVHFLDGGRMLLAPQLGFATSRTQFTAIVRDFVEHRYNREEGGWVYGVGWSEAVLGCSPTREWLDEVSTKIHLVMYSKDIHSAVMNTAALRSCHIIPGAEDGEPLITSVEGGVIELNENGQPSGVLRDNAIQLAKRYAPAADTPANQRRALEAATEHLLSLGFTSVFSMMSTTYMDNVSEINFLAQMEREGAMRLRVRYGVPLSDVERLMDKFYRVMATDAAQSGRSDDFTLPYRFTMTPPAAGGGYLLLGAVKLFADGSLSSRTAAMNRPYGYNVTTEGDIDSDLDDAAISALLKERSGKQCQCGLLTMSRLELQCAIRVAHSHDLQCVVHAIGDRAVATVNRALCASADWLRERGAEAGVVAAVARFRADPRSRVEHCQHMSSMTKEVKRMAQYGIIASMQPCHLLFDGDYVDTLLGQRRKDTSYMWGTLLAAKIRVDLGSDWPVAPADVNDGLRGAVTRVPDVMTALAAEEAQYRSQQQAQPSADNTAACAATALRRYHDTWNPAECISMDAALRTYTYEGAHGMFMENYLGTLEVGKYADITVWTADWLDDAEMEQMAGVEGANARWWPRHREPHVAYTIVGGVVEYDRSH | not soluble
3 | MPESTNFTEEITQWVESLPNWGKAAVAGGVALAVYIPYKFMATRPRKSPLNENWKPDVVYLYQFPRARLLPNLSPFCMKVETWLRMSDITYEIPPCSLSTRSQEGTLPFVELNGKEYYDSSFILRDIDQVIKHTSLDDHLSAEQKATSRAFEAMSEKSLAISACYYRMENVEKMLDQFDPKLFGIFGFLFKLIGSRTYVSALLRRITGSDIGFHSREDIINIGSEDLKAISKYLGNKHYFHGFKPTKVDACIFSHLCQIYYAPYTSEHRDLIDGECKNLAEYVERIKNRFYPDWDDVTTKFSTDTSNWKKRHVARNGNGKH | not soluble
4 | MKTITETLNLAPKGKNFLTADWPAPANVKTLITTRNGGVSQGAYQSLNLGTHVGDNPEAVRRNREIVQQQVGLPVAYLNQIHSTVVVNAAEALGGTPDADASVDDTGKVACAVMTADCLPVLFCDRAGTAVAAAHAGWRGLAGGVLQNTIAAMKVPPVEMMAYLGPAISADAFEVGQDVFDAFCTPMPEAATAFEGIGSGKFLADLYALARLILKREGVGGVYGGTHCTVLERDTFFSYRRDGATGRMASLIWLDGNAV | soluble
5 | MGSDKIHHHHHHMIMKVVVKVGSNLLVGSSGLRKSYIAELCREVARLKSQGHEISIITSGARAAGFTYLGKGKRTQDLHIKQALCAVGQVQLMKVYENAFDFYGIKIAQILLTRDTFSNRKRYLNLRNTLIGLSEFDVVPIVNENDTVATEEITLGDNDTLAAMFSIAWDADFLVLFTTVDGVIDENGKLVERFDESVKLKDMGKSSWGTGGIRSKIESALMASRCGVKATICSGNDVSNLTRFVKGEPVGTVFEPQGRLKAKKAWIAFLSEPAGKIYVNKGAEEALKSGNSLLPVGVTGVEGTFDVGDVVEIVNEEGELVGRGIVNYSSSDLEKIAGHKSSDLKKILGYEGNKVVVHIDNMWVA | not soluble
6 | MAAASAVSVLLVAAERNRWHRLPSLLLPPRTWVWRQRTMKYTTATGRNITKVLIANRGEIACRVMRTAKKLGVQTVAVYSEADRNSMHVDMADEAYSIGPAPSQQSYLSMEKIIQVAKTSAAQAIHPGCGFLSENMEFAELCKQEGIIFIGPPPSAIRDMGIKSTSKSIMAAAGVPVVEGYHGEDQSDQCLKEHARRIGYPVMIKAVRGGGGKGMRIVRSEQEFQEQLESAWREAKKSFNDDAMLIEKFVDTPRHVEVQVFGDHHGNAVYLFERDCSVQRRHQKIIEEAPAPGIKSEVRKKLGEAAVRAAKAVNYVGAGTVEFIMDSKHNFCFMEMNTRLQVEHPVTEMITGTDLVEWQLRIAAGEKIPLSQEEITLQGHAFEARIYAEDPSNNFMPVAGPLVHLSTPRADPSTRIETGVRQGDEVSVHYDPMIAKLVVWAADRQAALTKLRYSLRQYNIVGLPTNIDFLLNLSGHPEFEAGNVHTDFIPQHHKQLLLSRKAAAKESLCQAALGLILKEKAMTDTFTLQAHDQFSPFSSSSGRRLNISYTRNMTLKDGKNNVAIAVTYNHDGSYSMQIEDKTFQVLGNLYSEGDCTYLKCSVNGVASKAKLIILENTIYLFSKEGSIEIDIPVPKYLSSVSSQETQGGPLAPMTGTIEKVFVKAGDKVKAGDSLMVMIAMKMEHTIKSPKDGTVKKVFYREGAQANRHTPLVEFEEEESDKRESE | soluble
7 | GNIATTPGDVVYRNRMMELIQYKPATDTVHEIPIVLFPPWINKFYILDLKAQNSFIKWVTEQGFTIFVVSWINPDASYADVGMEDYIQDGFLTAIDEVKKICKVKQVNAVGYCIAGTTLSLTLSLMKQTGDKSVKSATFFTALTDFSDQGEFTPFLQDDFIDGIEEEVTREGVLRSWIMARTFSYLRSNDLIYKPAIQSYMLGETPPAFDLLYWNGDGANLPAKMAVQYLRGLCQRNEFAGEGFDLMGHTLHVRDVDVPVMAITCETDHIAAWKDCYRGVQKMGSRSKTFVVSESGHIAGIVNPPSKKKYGHYTNPDLKDD | not soluble
8 | AHHHHHHGSGEKRKTRQAEVNIGMVGHVDHGKTTLTKALTGVWTDTHSEELRRGITIKIGFADAEIRRCSNCGRYSTSPICPYCGHETEFIRRVSFIDSPGHEALMTTMLAGASLMDGAILVIAANEPCPRPQTREHLMALQIIGQKNIIIAQNKIELVDKEKALENYRQIKEFIKGTVAENAPIIPISALHGANIDVLVKAIEEFIPTPKRDSNKPPKMLVLRSFDVNKPGTPPEKLVGGVLGGSIVQGKLKVGDEIEIRPGVPYEEHGRIKYEPITTEIVSLQAGGQFVEEAYPGGLVGIGTKLDPYLTKGDLMAGNVVGKPGKLPPVWTDLRLEVHLLERVVGTEQELNVEPIKRKEVLLLNVGTARTMGLVTALGKDEIELKLQIPVCAEPGERVAISRQIGSRWRLIGYGIIKE | not soluble
9 | MEVVRIPEFKEKTAPGAYYQQPAIDGSRPGRFYANLFDIKATPKYGMRTLAYHEGIPGHHFQVAVAMELEGQPLIRKMAPFTAYIEGWALYSERVAWELGFQQDPFDNIGRLQAELFRAVRLVVDTGIHHSRWTREQAIDYMKKNTGMSDRDVTAEIERYIVMPGQATAYKVGMMKILELREKAKQALGDKFDLRDFHDVVLKNGAVPLDILEKLVDRYIADKRSQA | not soluble
10 | MKGGLLVDDEFIHGAARSLTVRKTSLFFAGDGFTVYDCKGSLVFRVDSYGGPNTRDTDEVVLMDAHGRCLLTLRRKRPSLRRRWEGYLGERSDGQKPIFGVRRSSIIGRNSVTVEVYGDYQCSEYLIEGSFGARNCTVVEAETRRKVAEIRRKVDASTNVMLGKDVFSLNVKPGFDGAFAMGLVLVLDQIYGDDLLEVGEEQVHPSAEDL | soluble
11 | MAESVFAERIVQNLLDTDFYKLTMMQAVLHNYPNAEVEWEFRCRNAEDLRPYLAEIRYQIERLAEVEVTADQLAFLERIPFMKPDFIRFLSLFRFNLRYVHTGIEDGQLAIRLRGPWLHVILFEVPLLAIVSEVRNRYRYREVVLEQVGEQLYRKLDWLSAQASSEELAEFQVADFGTRRRFSYRTQEEVVHILKRDFPGRFVGTSNVHLAREYDLKPIGTMAHEWLMAHQQLGPRLVDSQQAALDCWVREYRGQLGIALTDCITMDAFLDDFDLYFAKLFDGLRHDSGDPLAWAEKAIAHYRRLGIDPLSKTLVFSDGLDMPKALQLFRALRGKINVSFGIGTNLTCDIPGVEPMNIVLKMTACNGHPVAKISDAPGKTQCRDENFVAYLRHVFNVPA | not soluble
12 | MPITNERKETIRVAKKLNKFIALPSMLNWKVHESDVLRRGRVLCMIRSKNFFFPDDISSLKMRMATVTKHGYLVLYESVDEGLVIDLRSATHILTECDKYKSERIKYSRSHVKVRLPRGNVHMFLRDDDISKWTAALLEAHVSFRPTAAARVVAKPRQQPSKNVETMTAIEPVEVMDSPTSPVTSSNSGLITVLERGVSSEDTLIPSVRRGVIPVNTLRYQIEKHLEMCTPASEQLSKSSDPNISSMYVFHQGIQVKQEPIDDDQEEEQQVQKQLVFKIEGSEDEEAVKKEWWLRSLRC | not soluble
13 | MPCVFQIWEKGMEKQEIGIYGREKMFMRKKENELQIDWKHFYLGVLALVIPMALQNLINVGVTAADVVMLGRVGETALSGSSLAGQVQY | not soluble
14 | MSYPIKSTLIILRGNSASGKTTIAKQLQEHFGQGTLLVSQDVVRRDMLRVHDTIGNLSHDLLFEITKYGKGKCEFVILEGILNSHRYGDMLKELIHLFEGNAYTYYFDLSLKETIRRHNTREKRHEFGEDSLQKWYNPHDTIEVTRETIFTDNLTQKDIFDAILNDVMVRKLEHHHHHH | soluble
15 | SKDFMISAKGTFTYAKNQYMEIDEPDYEYAYMSQVGRPLNQYKGYIALGLFKDQEEIDNSPKQILTGVVQPGDIKYADLNNDGKIDGNDQTYIGNPELPQISYGLGVSIQYKKWDASIFFQGVGKRSIMLSDIHPFGGESYGVMQFVADNHWTEANPNPEAMYPRLTNGKNNNNNPNSTYWLRDGSYIRLKNVELGYSYKFLRAYISGQNLLTFSKFKLWDPELYTSNGLKYPTQIMGSIGLQFTF | not soluble
16 | MGSDKIHHHHHHMVYTTPWNRKIEFGRTMVMGIINVTPDSFFADSRKQSVLEAVETAKKMIEEGADIIDVGGMSTRPGSDPVDEEEELNRVIPVIRAIRSITDVPISVDTYRWRVALKALEAGADIVNDISGYQFEPDIVRVVSENNVPYVLMHIKGTPKTMQENPHYEDVVKEIKEYFTEKIEYLKEKGVNQIVLDPGIGFGKRYEDNLEILRRIDEFKELKLPILIGASRKSFIGITLGNVPPEERLEGTLAVTAYCTMKGVDIIRVHDVLPNKRVIRMMEAILWQRL | not soluble
17 | MGSDKIHHHHHHMLVASLVLLGLYDLFQAKHSILRNFPVIGHMRYLLEMIGPELHQYFVESDTDGKPINKNHRNYIYERAKEQNQTRPFGTQLNVYDDNYKWMQHSIYPAKKMDTPPRVVIGGKDCQQPYSASLFNISAMSFGALSKNAIQALNLGAKAGEFFHDTGEGGISEYHLQGGDLVWEIGTGYFGCRTGNGCFDAEKFKQKANWE | not soluble
18 | MSLNADTPLQLLGGLTAAEFLRDYWQRKPLLVRQAIPDFESPLSADELAGLSLEESVESRIVLEHGKTPWEMRRGPFQEEDYQHLPEQDWTLLVQAVDQFVPEVAQLLEQFRFLPSWRIDDVMISYAAPGGGVGPHFDNYDVFLLQGHGRRRWKVGQMCSSDSPLREHADLRILADFEQSDEWVLEPGDMLYLPPRLAHYGIAEDECMTYSIGFRAPSAAEVLTHFTDSLGQFLSDEERYTDAGLQPVGDDPHQIQRDALERLQGLIQEHMSDERLLLTWFGQFMTEPRYPELVAGEDIPEEELFGALEDGALLVRNPSARLAWSEIDIGLVLFASGQSVLLPGQLKELLKLVCSADALHLENLGQWLADDDARKLLAELVKQGSLEFADEEGGSHHHHHH | soluble
19 | MKHFSVKRLLGLSSVLLVTLGASMHAQSYLPKHESVTLKNGLQVVSVPLENKTGVIEVDVLYKVGSRNETMGKSGIAHMLEHLNFKSTKNLKAGEFDKIVKRFGGVSNASTSFDITRYFIKTSQANLDKSLELFAETMGSLNLKEDEFLPERQVVAEERRWRTDNSPIGMLYFRFFNTAYVYHPYHWTPIGFMDDIQNWTLKDIKKFHSLYYQPKNAIVLVVGDVNSQKVFELSKKHFESLKNLDEKAIPTPYMKEPKQDGARTAVVHKDGVHLEWVALGYKVPAFKHKDQVALDALSRLLGEGKSSWLQSELVDKKRLASQAFSHNMQLQDESVFLFIAGGNPNVKAEALQKEIVALLEKLKKGEITQAELDKLKINQKADFISNLESSSDVAGLFADYLVQNDIQGLTDYQRQFLDLKVSDLVRVANEYFKDTQSTTVFLKP | not soluble
